Assay results: article PMC11707698, “Structure of an ex vivoDrosophila TOM complex determined by single-particle cryoEM” (IUCrJ, 2025)

Biological target: the molecule itself
Assay: cryo-EM structure; single-particle cryoEM of the TOM core complex assembled in the fly retina, FLAG-purified as a whole and reconstituted into non-ionic amphipol; graphene-coated grids; C2 symmetry; 3.3 Å

B1: Drosophila Tom40 subunit fused to a C-terminal FLAG-HA epitope tag (natural protein, D. melanogaster)
chain: AALENPGTVEELHKKCKDIQAITFEGAKIMLNKGLSNHFQVSHTINMSNVVPSGYRFGATYVGTKEFSPTEAFPVLLGDIDPAGNLNANVIHQFSARLRCKFASQIQESKVVASQLTTDYRGSDYTLSLTVANPSIFTNSGVVVGQYLQSVTPALALGSELAYQFGPNVPGRQIAIMSVVGRYTAGSSVWSGTLGQSGLHVCYYQKASDQLQIGAEVETSLRMQESVATLAYQIDLPKANLVFRGGIDSNWQIFGVLEKRLAPLPFTLALSGRMNHVKNNFRLGCGLMIG
notes: Tom40, translocation pore of the TOM complex, Drosophila melanogaster; transgene UAS-Tom40-FLAG.HA (Bloomington stock); residues 55-344 are modelled in the structure; two copies stand in the two-pore core complex; also called Tom40-FLAG-HA; Tom40_FLAG-HA; source: transgenic D. melanogaster retina (GMR-GAL4, UAS-Tom40-FLAG-HA, co-expressed with Myc); solubilised fly head membranes, purified on …
B1 was tested, and the “stoichiometry N” value was 2.
